Test results: patent US20150093398A1, “Methods and Compositions for Treating or Preventing Cancer” (MERCK SHARP & DOHME CORP., priority 2005, published 2015)

Assays:
[1] = system: SK-N-AS neuroblatoma cells; assay: SK-N-AS neuroblastoma xenograft tumor growth in mice (03 IGFR-09, 19D12 vs. Cytoxan); format: in vivo, Athymic nude mice
Experimental: (§1) Athymic nude mice were inoculated with tumor cells in the right flank, subcutaneously, along with Matrigel (1:1 cells:gel). In these experiments, 5×10^6 cells/mouse in a 1:1 mix with regular matrigel were inoculated subcutaneously. Tumor size was measured with calipers and the data was entered into the labcat program. Mice were grouped with average size of 100 mm^3. Tumor size and body weight were measured twice weekly.
(§2) In these experiments, mice were dosed twice per week, intraperitoneally (i.p.) with antibody 19D12 and chemotherapeutic agents at the indicated frequency. Tumor size and mouse body weight was measured twice weekly after treatment.

[2] = system: SK-N-MC neuroblastoma cells; assay: SK-N-MC neuroblastoma xenograft tumor growth in mice (04 IGFR-13, 19D12 vs. Cisplatin); format: in vivo, Athymic nude mice
[3] = system: SK-N-FI neuroblastoma cells; assay: SK-N-FI neuroblastoma xenograft tumor growth in mice (04 IGFR-20); format: in vivo, Athymic nude mice
[4] = system: SJCRH30 rhabdomyosarcoma cells; assay: SJCRH30 rhabdomyosarcoma xenograft tumor growth in mice (05 IGFR-01, 19D12 and Cytoxan); format: in vivo, Athymic nude mice
Experimental: as §1, §2

[5] = system: SJSA-1 osteosarcoma cells; assay: SJSA-1 osteosarcoma xenograft model (05-IGFR-21), dosing from 15 days after inoculation; format: in vivo, female nude mouse (strain NU/NU)
Experimental: Xenograft tumor size was measured twice per week with a caliper and captured electronically by the LabCat program. […] For the experiments set forth in Table 9, dosing was initiated 15 days after inoculation. […] Xenograft tumor size was measured twice per week with a caliper and captured electronically by the LabCat program.

[6] = system: Hs700T malignant pancreatic cells; assay: Hs700T pancreatic xenograft tumor growth in mice (04 IGFR-16, 19D12 and Gemzar combination);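 also: subcutaneous flank xenografts in athymic nude mice, treated once tumors averaged 100 mm^3, antibody given intraperitoneally twice weekly, tumor size measured by calipers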
Experimental: as §1, §2

B1: 19D12: anti-IGF1R antibody: light chain variable region amino acids 20-128 of SEQ ID NO: 8, heavy chain variable region amino acids 20-137 of SEQ ID NO: 10 (antibody, V domains shown)
VL: MSPSQLIGFLLLWVPASRGEIVLTQSPGTLSVSPGERATLSCRASQSIGSSLHWYQQKPGQAPRLLIKYASQSLSGIPDRFSGSGSGTDFTLTISRLEPEDFAVYYCHQSSRLPHTFGQGTKVEIKRT
VH: MEFGLSWVFLVAILKGVQCEVQLVQSGGGLVKPGGSLRLSCAASGFTFSSFAMHWVRQAPGKGLEWISVIDTRGATYYADSVKGRFTISRDNAKNSLYLQMNSLRAEDTAVYYCARLGNFYYGMDVWGQGTTVTVSS
modifications: variable regions only: LC 20-128, HC 20-137; constant regions lack entries
[1]; 0.004 mg 19D12/IgG1, Day 4
  Tumor Average Size: 335 mm^3
[1]; 0.004 mg 19D12/IgG1, Day 7
  Tumor Average Size: 568 mm^3
[1]; 0.004 mg 19D12/IgG1, Day 11
  Tumor Average Size: 1314 mm^3
[1]; 0.004 mg 19D12/IgG1, Day -1
  Tumor Average Size: 142 mm^3
[1]; 0.02 mg 19D12/IgG1, Day 4
  Tumor Average Size: 231 mm^3
[1]; 0.02 mg 19D12/IgG1, Day 7
  Tumor Average Size: 307 mm^3
[1]; 0.02 mg 19D12/IgG1, Day 11
  Tumor Average Size: 547 mm^3
[1]; 0.02 mg 19D12/IgG1, Day -1
  Tumor Average Size: 137 mm^3
[1]; 0.1 mg 19D12/IgG1, Day 4
  Tumor Average Size: 249 mm^3
[1]; 0.1 mg 19D12/IgG1, Day 7
  Tumor Average Size: 321 mm^3
[1]; 0.1 mg 19D12/IgG1, Day 11
  Tumor Average Size: 615 mm^3
[1]; 0.1 mg 19D12/IgG1, Day -1
  Tumor Average Size: 135 mm^3
[1]; 0.5 mg 19D12/IgG1, Day 4
  Tumor Average Size: 205 mm^3
[1]; 0.5 mg 19D12/IgG1, Day 7
  Tumor Average Size: 273 mm^3
[1]; 0.5 mg 19D12/IgG1, Day 11
  Tumor Average Size: 492 mm^3
[1]; 0.5 mg 19D12/IgG1, Day -1
  Tumor Average Size: 123 mm^3
[2]; 0.004 mg 19D12, Day 0
  Tumor Average Size: 89 mm^3
[2]; 0.004 mg 19D12, Day 2
  Tumor Average Size: 120 mm^3
[2]; 0.004 mg 19D12, Day 6
  Tumor Average Size: 146 mm^3
[2]; 0.004 mg 19D12, Day 9
  Tumor Average Size: 177 mm^3
[2]; 0.004 mg 19D12, Day 13
  Tumor Average Size: 212 mm^3
[2]; 0.004 mg 19D12, Day 16
  Tumor Average Size: 235 mm^3
[2]; 0.004 mg 19D12, Day 20
  Tumor Average Size: 292 mm^3
[2]; 0.004 mg 19D12, Day 23
  Tumor Average Size: 331 mm^3
[2]; 0.004 mg 19D12, Day 24
  Tumor Average Size: 331 mm^3
[2]; 0.02 mg 19D12, Day 0
  Tumor Average Size: 97 mm^3
[2]; 0.02 mg 19D12, Day 2
  Tumor Average Size: 122 mm^3
[2]; 0.02 mg 19D12, Day 6
  Tumor Average Size: 151 mm^3
[2]; 0.02 mg 19D12, Day 9
  Tumor Average Size: 189 mm^3
[2]; 0.02 mg 19D12, Day 13
  Tumor Average Size: 222 mm^3
[2]; 0.02 mg 19D12, Day 16
  Tumor Average Size: 248 mm^3
[2]; 0.02 mg 19D12, Day 20
  Tumor Average Size: 292 mm^3
[2]; 0.02 mg 19D12, Day 23
  Tumor Average Size: 344 mm^3
[2]; 0.02 mg 19D12, Day 24
  Tumor Average Size: 344 mm^3
[2]; 0.1 mg 19D12, Day 0
  Tumor Average Size: 89 mm^3
[2]; 0.1 mg 19D12, Day 2
  Tumor Average Size: 115 mm^3
[2]; 0.1 mg 19D12, Day 6
  Tumor Average Size: 144 mm^3
[2]; 0.1 mg 19D12, Day 9
  Tumor Average Size: 193 mm^3
[2]; 0.1 mg 19D12, Day 13
  Tumor Average Size: 226 mm^3
[2]; 0.1 mg 19D12, Day 16
  Tumor Average Size: 245 mm^3
[2]; 0.1 mg 19D12, Day 20
  Tumor Average Size: 282 mm^3
[2]; 0.1 mg 19D12, Day 23
  Tumor Average Size: 335 mm^3
[2]; 0.1 mg 19D12, Day 24
  Tumor Average Size: 335 mm^3
[2]; 0.5 mg 19D12, Day 0
  Tumor Average Size: 83 mm^3
[2]; 0.5 mg 19D12, Day 2
  Tumor Average Size: 107 mm^3
[2]; 0.5 mg 19D12, Day 6
  Tumor Average Size: 133 mm^3
[2]; 0.5 mg 19D12, Day 9
  Tumor Average Size: 173 mm^3
[2]; 0.5 mg 19D12, Day 13
  Tumor Average Size: 210 mm^3
[2]; 0.5 mg 19D12, Day 16
  Tumor Average Size: 234 mm^3
[2]; 0.5 mg 19D12, Day 20
  Tumor Average Size: 264 mm^3
[2]; 0.5 mg 19D12, Day 23
  Tumor Average Size: 317 mm^3
[2]; 0.5 mg 19D12, Day 24
  Tumor Average Size: 317 mm^3
[3]; 0.02 mg 19D12, Day 0
  Tumor Average Size: 150 mm^3
[3]; 0.02 mg 19D12, Day 5
  Tumor Average Size: 181 mm^3
[3]; 0.02 mg 19D12, Day 8
  Tumor Average Size: 204 mm^3
[3]; 0.02 mg 19D12, Day 12
  Tumor Average Size: 207 mm^3
[3]; 0.02 mg 19D12, Day 15
  Tumor Average Size: 217 mm^3
[3]; 0.02 mg 19D12, Day 19
  Tumor Average Size: 237 mm^3
[3]; 0.02 mg 19D12, Day 22
  Tumor Average Size: 290 mm^3
[3]; 0.1 mg 19D12, Day 0
  Tumor Average Size: 151 mm^3
[3]; 0.1 mg 19D12, Day 5
  Tumor Average Size: 164 mm^3
[3]; 0.1 mg 19D12, Day 8
  Tumor Average Size: 146 mm^3
[3]; 0.1 mg 19D12, Day 12
  Tumor Average Size: 154 mm^3
[3]; 0.1 mg 19D12, Day 15
  Tumor Average Size: 141 mm^3
[3]; 0.1 mg 19D12, Day 19
  Tumor Average Size: 154 mm^3
[3]; 0.1 mg 19D12, Day 22
  Tumor Average Size: 170 mm^3
[3]; 1 mg 19D12, Day 0
  Tumor Average Size: 155 mm^3
[3]; 1 mg 19D12, Day 5
  Tumor Average Size: 161 mm^3
[3]; 1 mg 19D12, Day 8
  Tumor Average Size: 128 mm^3
[3]; 1 mg 19D12, Day 12
  Tumor Average Size: 126 mm^3
[3]; 1 mg 19D12, Day 15
  Tumor Average Size: 118 mm^3
[3]; 1 mg 19D12, Day 19
  Tumor Average Size: 117 mm^3
[3]; 1 mg 19D12, Day 22
  Tumor Average Size: 122 mm^3
[4]; 0.02 mg 19D12, Day 0
  Tumor Average Size: 74 mm^3
[4]; 0.02 mg 19D12, Day 4
  Tumor Average Size: 144 mm^3
[4]; 0.02 mg 19D12, Day 7
  Tumor Average Size: 337 mm^3
[4]; 0.02 mg 19D12, Day 11
  Tumor Average Size: 534 mm^3
[4]; 0.02 mg 19D12, Day 14
  Tumor Average Size: 714 mm^3
[4]; 0.02 mg 19D12, Day 18
  Tumor Average Size: 926 mm^3
[4]; 0.1 mg 19D12, Day 0
  Tumor Average Size: 74 mm^3
[4]; 0.1 mg 19D12, Day 4
  Tumor Average Size: 126 mm^3
[4]; 0.1 mg 19D12, Day 7
  Tumor Average Size: 232 mm^3
[4]; 0.1 mg 19D12, Day 11
  Tumor Average Size: 372 mm^3
[4]; 0.1 mg 19D12, Day 14
  Tumor Average Size: 520 mm^3
[4]; 0.1 mg 19D12, Day 18
  Tumor Average Size: 681 mm^3
[4]; 1 mg 19D12, Day 0
  Tumor Average Size: 75 mm^3
[4]; 1 mg 19D12, Day 4
  Tumor Average Size: 103 mm^3
[4]; 1 mg 19D12, Day 7
  Tumor Average Size: 183 mm^3
[4]; 1 mg 19D12, Day 11
  Tumor Average Size: 284 mm^3
[4]; 1 mg 19D12, Day 14
  Tumor Average Size: 442 mm^3
[4]; 1 mg 19D12, Day 18
  Tumor Average Size: 562 mm^3
[5]; 0.04 mg 19D12, Day 0
  Mean Tumor size: 142 mm3
[5]; 0.04 mg 19D12, Day 4
  Mean Tumor size: 153 mm3
[5]; 0.04 mg 19D12, Day 7
  Mean Tumor size: 222 mm3
[5]; 0.04 mg 19D12, Day 11
  Mean Tumor size: 306 mm3
[5]; 0.04 mg 19D12, Day 14
  Mean Tumor size: 431 mm3
[5]; 0.1 mg 19D12, Day 0
  Mean Tumor size: 145 mm3
[5]; 0.1 mg 19D12, Day 4
  Mean Tumor size: 147 mm3
[5]; 0.1 mg 19D12, Day 7
  Mean Tumor size: 151 mm3
[5]; 0.1 mg 19D12, Day 11
  Mean Tumor size: 212 mm3
[5]; 0.1 mg 19D12, Day 14
  Mean Tumor size: 251 mm3
[5]; ip twice a week, 0.04 or 0.1 mg per mouse, with Cytoxan 50 or 100 mpk once a week, summary of Table 9
  regression of tumor volume (in words): anti-IGF1R-dependent regression of tumor volume
[6]; 0.1 mg 19D12, Day 0
  Tumor Average Size: 74 mm^3
[6]; 0.1 mg 19D12, Day 4
  Tumor Average Size: 86 mm^3
[6]; 0.1 mg 19D12, Day 7
  Tumor Average Size: 89 mm^3
[6]; 0.1 mg 19D12, Day 11
  Tumor Average Size: 98 mm^3
[6]; 0.1 mg 19D12, Day 14
  Tumor Average Size: 123 mm^3
[6]; 0.1 mg 19D12, Day 18
  Tumor Average Size: 165 mm^3
[6]; 0.1 mg 19D12, Day 21
  Tumor Average Size: 187 mm^3
[6]; 0.1 mg 19D12, Day 26
  Tumor Average Size: 272 mm^3
[6]; 0.1 mg 19D12, Day 29
  Tumor Average Size: 335 mm^3
[6]; 0.1 mg 19D12, Day 33
  Tumor Average Size: 371 mm^3
[6]; 0.1 mg 19D12, Day 36
  Tumor Average Size: 415 mm^3
[6]; 0.5 mg 19D12, Day 0
  Tumor Average Size: 75 mm^3
[6]; 0.5 mg 19D12, Day 4
  Tumor Average Size: 70 mm^3
[6]; 0.5 mg 19D12, Day 7
  Tumor Average Size: 69 mm^3
[6]; 0.5 mg 19D12, Day 11
  Tumor Average Size: 71 mm^3
[6]; 0.5 mg 19D12, Day 14
  Tumor Average Size: 93 mm^3
[6]; 0.5 mg 19D12, Day 18
  Tumor Average Size: 115 mm^3
[6]; 0.5 mg 19D12, Day 21
  Tumor Average Size: 137 mm^3
[6]; 0.5 mg 19D12, Day 26
  Tumor Average Size: 239 mm^3
[6]; 0.5 mg 19D12, Day 29
  Tumor Average Size: 249 mm^3
[6]; 0.5 mg 19D12, Day 33
  Tumor Average Size: 282 mm^3
[6]; 0.5 mg 19D12, Day 36
  Tumor Average Size: 334 mm^3
[6]; 1 mg 19D12, Day 0
  Tumor Average Size: 77 mm^3
[6]; 1 mg 19D12, Day 4
  Tumor Average Size: 80 mm^3
[6]; 1 mg 19D12, Day 7
  Tumor Average Size: 85 mm^3
[6]; 1 mg 19D12, Day 11
  Tumor Average Size: 81 mm^3
[6]; 1 mg 19D12, Day 14
  Tumor Average Size: 99 mm^3
[6]; 1 mg 19D12, Day 18
  Tumor Average Size: 128 mm^3
[6]; 1 mg 19D12, Day 21
  Tumor Average Size: 152 mm^3
[6]; 1 mg 19D12, Day 26
  Tumor Average Size: 231 mm^3
[6]; 1 mg 19D12, Day 29
  Tumor Average Size: 280 mm^3
[6]; 1 mg 19D12, Day 33
  Tumor Average Size: 312 mm^3
[6]; 1 mg 19D12, Day 36
  Tumor Average Size: 305 mm^3
